Results taken from patent publication US7267822.
Where no end group is shown, it is not given here.

Biological target: recombinant hsc70 (Stressgen, Victoria, Canada)
Test: competition ELISA on coated hsc70 against biotinylated-2702.75-84 (3 uM)

IC50: 7 µM
Binder: RENLRIALRY-NH2 (also: acetate salt) [peptide 2702.75-84]
